Target: OsMADS57 (Oryza sativa, UniProt Q6Z6W2 1-241)
Experiment: EMSA; competed by unlabeled probe; LightShift Chemiluminescent EMSA Kit (Thermo); buffer, salt, pH and temperature not stated
Details: protein: recombinant; tags: His (pET32a(+) vector-encoded tags); chain copies: 2; label: biotin 3' end; blunt

OsMADS57, sequence (Q6Z6W2 whole entry): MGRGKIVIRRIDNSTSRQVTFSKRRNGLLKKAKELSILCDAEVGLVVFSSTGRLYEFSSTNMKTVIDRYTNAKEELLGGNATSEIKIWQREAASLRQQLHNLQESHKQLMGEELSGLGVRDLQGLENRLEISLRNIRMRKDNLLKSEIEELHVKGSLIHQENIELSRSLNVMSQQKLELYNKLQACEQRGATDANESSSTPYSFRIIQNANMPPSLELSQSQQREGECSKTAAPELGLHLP

| Binder | binding result |
| --- | --- |
| OsGA2ox3 promoter CArG probe (dsDNA) DNA 1: TAGCACGAGGGAAAACCCTTTAAAAAGACAGACAAGGCAGACG DNA 2: CGTCTGCCTTGTCTGTCTTTTTAAAGGGTTTTCCCTCGTGCTA | binds |
| EUI1 promoter CArG probe (dsDNA) DNA 1: GCCTTTCCCTTTGTTACTGTTGCATATAAAAGATCATCAATGT DNA 2: ACATTGATGATCTTTTATATGCAACAGTAACAAAGGGAAAGGC | binds |
